Columns and labels:
[1] = target: T1, HER2 (cell surface) (human, UniProt P04626); experiment: FACS, A431 cells
[2] = target: T1, HER2 (cell surface); experiment: FACS, AU565 cells

B1: 098 (PC1014-098) (antibody, V domains shown)
VH: EVQLLESGGGLVQPGGSLRLSCAASGFTFSNYGMSWVRQAPGKGLEWVSAISGSAYSTYYADSVKGRFTISRDNSKNTLWLQMNSLRAEDTAVYYCAKAHYHGSGSYYTLFDYWGQGTLVTVSS
VL: DIQMTQSPSSLSASVGDRVTITCRASQGISSWLAWYQQKPEKAPKSLIYAASSLQSGVPSRFSGSGSGTDFTLTISSLQPEDFATYYCQQYNSYPYTFGQGTKLEIK
B1 gave an EC50 [1] of 0.068 µg/mL and an EC50 [2] of 0.336 µg/mL.

Source: US11046771 (dated 2021)
